As a reminder, the stoichiometry N is the number of molecules, sites or subunits per partner or assembly.

This passage reports stoichiometry N results from paper PMC12866822.

This test has as its target pyruvate kinase M2 (PKM2), endogenous in RAW264.7 macrophages (mouse (endogenous in RAW264.7)) (UniProt P52480). As to the kind of experiment: cross-linking; lysates (RIPA buffer) of cells with endogenous PKM2 (RAW264.7, LX2, WRL68) treated with 1 µM DSS on ice for 1 h, SDS-PAGE, blot with PKM2 antibody; cells treated with the four compounds, or LPS with FE (12.5, 25, 50 µM) or DASA-58.

Sequence of pyruvate kinase M2 (PKM2), endogenous in RAW264.7 macrophages, P52480 1-531 (enzyme; other documents disagree on this pair) (P52480 whole entry): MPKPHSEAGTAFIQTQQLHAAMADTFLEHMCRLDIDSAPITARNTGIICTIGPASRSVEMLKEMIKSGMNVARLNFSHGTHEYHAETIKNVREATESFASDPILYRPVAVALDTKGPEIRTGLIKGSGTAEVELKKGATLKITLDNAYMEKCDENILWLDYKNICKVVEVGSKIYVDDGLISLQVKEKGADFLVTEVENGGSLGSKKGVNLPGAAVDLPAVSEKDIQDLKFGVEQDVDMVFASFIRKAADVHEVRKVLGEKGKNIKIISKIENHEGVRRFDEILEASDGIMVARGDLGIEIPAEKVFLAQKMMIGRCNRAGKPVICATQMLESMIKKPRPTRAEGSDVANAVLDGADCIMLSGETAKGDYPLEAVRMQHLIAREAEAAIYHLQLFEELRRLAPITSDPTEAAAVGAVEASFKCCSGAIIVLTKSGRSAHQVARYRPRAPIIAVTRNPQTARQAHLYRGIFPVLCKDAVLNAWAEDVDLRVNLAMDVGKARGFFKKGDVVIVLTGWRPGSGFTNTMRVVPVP

In turn, “pyruvate kinase M2 (PKM2), endogenous in RAW264.7 macrophages, P52480 1-531 (enzyme; other documents disagree on this pair)” had a stoichiometry N of 4.
